Experimental data published in publication PMC3021122.

Columns and labels:
[1] = molecular target: T1, Shigella flexneri Spa15 (residues 1-133), N-terminal His tag, unlabelled (Shigella flexneri), P35530; experiment: SEC; HiLoad 26/60 Superdex 75, 20 mM Tris-HCl (pH 7.5), 150 mM NaCl; Spa15 alone; conditions: remark: other sources report otherwise
T1 chain: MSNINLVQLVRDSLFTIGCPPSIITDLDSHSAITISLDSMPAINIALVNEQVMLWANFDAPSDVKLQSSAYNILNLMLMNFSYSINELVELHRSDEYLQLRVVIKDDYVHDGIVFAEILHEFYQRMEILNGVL

[2] = molecular target: T1, Shigella flexneri Spa15 (residues …); experiment: multi-angle laser light scattering; co-purified Spa15:IpgB1 complex; data not shown; conditions: remark: other sources report otherwise

B1: Shigella flexneri Spa15 (residues 1-133), N-terminal His tag, unlabelled, P35530 1-133 (natural protein)
chain: T1 chain
B1 was tested, and the stoichiometry N [1] was 2 and the stoichiometry N [2] was 2.
